# Experimental data from the supplement of paper PMC10567573.
# ± gives the standard deviation.
# Experiment: protein stability index of a GFP-peptide fusion (GPS, HEK-293T) (PSI 1-6); higher = more stable
# Conditions: c terminus: a fixed tail appended
# 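Note: 24-mer peptide tiles fused after GFP, lentivirally expressed, FACS-sorted into six equal bins by GFP/DsRed ratio, decoded by Illumina sequencing, PSI is the read-weighted mean bin number.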
Sequence,protein stability index (treatment: DMSO),"protein stability index (treatment: MLN4924 1 uM, 8 h)"
YIAAFLHVLLPVALEFQPQLVLVA [HDAC6],3.25 ± 0.84,3.14 ± 0.41
KTPPSSCDSTNAAIAKQALKKPIK [KMT5A],5.11 ± 0.12,5.15 ± 0.3
LEQFLSILPKELQGWVREHCPESG [ZSCAN9],2.5 ± 0.15,2.71 ± 0.29
AAPAAGLCGAGSEPSIAPTSCAGN [RSPH3],4.55 ± 0.25,4.68 ± 0.26
FFVPLSYLLMVTVILLPYVSKVTG [TMEM175],3.33 ± 0.26,3.11 ± 0.31
GNDTSPSEGTNLNAPNSLGVSALC [HNF4A],4.65 ± 0.18,4.76 ± 0.15
YAIAGYDGNSLLSSIECYDPIIDS [KLHL12],2.83 ± 0.48,3.01 ± 0.36
INIKGISEAKADKILAEAAKLVPM [RAD51],2.62 ± 0.15,2.42 ± 0.15
PSSSGHLADSDTLSSAEENEPSQA [C18orf25],5.56 ± 0.22,5.52 ± 0.11
KQEENDVVEKLNLFLDLLQSYKDL [SNX8],1.95 ± 0.29,2.12 ± 0.31
DTGEEEEGGDESDLSSESSIKKKF [EHMT1],5.46 ± 0.32,5.3 ± 0.12
ETIEGAPPLWAASAAGHLDVVRSL [FEM1A],3.78 ± 0.16,3.72 ± 0.13
FKDYIQERSDPVEQGKPVIPAAVL [ETS2],4.08 ± 0.2,3.97 ± 0.27
SDLNEVPVKELAALPKATILDLSC [LRRC59],3.96 ± 0.052,4.01 ± 0.3
RHWCMKHDELLAEHIKSLLIKNNS [INTS3],2.29 ± 0.12,2.38 ± 0.33
ERERQPCGDGNTETHRAPDLVQWT [SOAT2],4.92 ± 0.06,4.65 ± 0.24
PESADTGDKSESPDEANVGKHPKD [TOR1AIP2],5.57 ± 0.14,5.601 ± 0.053
VRTMQNTNDVETARCTAGTLHNLS [CTNNB1],3.57 ± 0.33,3.81 ± 0.32
FRVTLWVHPFVNYNSSRFGEGVER [MYORG],2.77 ± 0.89,2.62 ± 0.41
KEKANSLKNEIQEVEELDNWQPAV [SPATS1],5.24 ± 0.2,5.25 ± 0.27
AVMFFIVFFAYAQLGYLLFGTQVE [PKD2L1],2.7 ± 0.48,2.73 ± 0.44
ELNKQVVSSSEQLQSCQAEIIELR [KRT34],3.82 ± 0.33,4.04 ± 0.53
LQTDHYAALLGSNSESWGWDIGRG [SPSB2],3 ± 0.032,3.02 ± 0.13

Sequence,protein stability index (treatment: DMSO),"protein stability index (treatment: MLN4924 1 uM, 8 h)"
ALNEQACRNGSSIQIAFEEVPQLP [C2CD2L],3.83 ± 0.38,4.02 ± 0.12
DDEFFHFVLLCFAIGALLVCYHYY [TMEM40],2.27 ± 0.39,2.37 ± 0.88
NRVVVSGLPPSGSWQDLKDHMREA [SRSF1],3.93 ± 0.094,4.03 ± 0.12
GIQLLIVEYKDIASIHWDWKIALL [SLC35F2],2.58 ± 0.61,2.69 ± 0.78
APPGSLVTKVTAVDADAGHNAWLS [PCDHGC5],3.848 ± 0.025,4 ± 0.19
RERMELLEEAKKMEMAKFRYILPV [RIPK4],2.48 ± 0.22,2.84 ± 0.4
SDYPSPDISPPIFRRGEKLRVISD [SLA],3.88 ± 0.3,4.2 ± 0.25
KSNNRLKSLSIQYLELDRLVWRNS [FBXO39],2.38 ± 0.18,2.4 ± 0.3
EEEAASPEGKRVPKRLRCWEEEED [FANCE],5.4 ± 0.42,5.38 ± 0.21
LGTDPTHVMGLYPDLLPTDYRKQL [VPS39],3.34 ± 0.36,3.42 ± 0.41
DSYIPLHEDLLTRIGEATKPDGTV [NET1],4.5 ± 0.43,4.73 ± 0.28
KYQANITETQRLGLAMALEPNTTF [FANCE],3.36 ± 0.17,3.4 ± 0.15
VWTNDQVVHWVQSIGLRDYAGNLH [PPFIA4],2.16 ± 0.53,2.11 ± 0.29
NGLTPKKKIQVNSKPSIQPKPLLL [ATF6],3.48 ± 0.17,3.32 ± 0.25
GMSTIRPNPGFSMLDFLSERPWIK [APMAP],2.62 ± 0.34,2.76 ± 0.24
KQILDGVHYLHSKRIAHFDLKPEN [DAPK3],2.91 ± 0.18,3.19 ± 0.26
SVRRSESWARPRPDEERPLRRPRP [RASAL3],4.92 ± 0.096,4.68 ± 0.29
FTKETTQKNFNNLYGTKGNYTSRV [TRIM29],2.26 ± 0.42,2.61 ± 0.27
QHTPDQANSDRASIGRRRTELRRS [PLEKHN1],4.95 ± 0.38,5.34 ± 0.19
ECRNPQELESIRQDRDALHMEGLI [FEM1B],4.3 ± 0.16,4.31 ± 0.17
VFIIRKSLLDELMEVQHFRTIYHM [SOAT2],2.85 ± 0.61,2.58 ± 0.46
QLFEDPTVDKEVEIRKKVLKIYNK [MNAT1],3.41 ± 0.18,3.5 ± 0.29
